From US8563503B2, “Antibiotic, its nucleotide sequence, methods of construction and uses thereof” (Protein Design Lab. Ltd., priority 2011, dated 2013)
Entries after “also recorded” stand apart in the source; their conditions may differ.

Columns and labels:
[1] = tested on: methicillin-resistant Staphylococcus aureus (ATCC BAA-42); test: Transmission electron microscope observation of bactericidal effect; format: cell-based
Procedure: Transmission Electron Microscope Observations of the Bactericidal Effect of the Novel Antibiotic PMC-SA1 on Methicillin-Resistant Staphylococcus aureus (ATCC BAA-42) (Dyed by 1% Phospho-Wolframic Acid, Magnified by 25,000 Fold)
Culture solution: 1% tryptone, 1% NaCl, 0.5% yeast extract, 0.5% glucose, 0.1% K2HPO4.
Con: control group, the bacterium was added to the above culture solution and proper amount of 0.3 M NaCl+50 mM boric acid buffer solution, 200 rpm, grew at 37° C. for 2 hours, and the bacterial appearance was still regular;
PMC: the bacterium was added to the above culture solution with 10 μg/ml PMC-SA1 for 0.5 hours.

[2] = tested on: Enterococcus; test: MIC by Agar Doubling Dilution Method, clinical isolates; format: cell-based, Enterococcus faecalis; details: Enterococcus clinical strains
In short: (§1)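 MH agar, twofold drug dilutions; multipoint inoculation, 10^5 CFU/ml/spot; 37° C, 18-24 h; E. faecalis in MH + 5-10% defibrinated rabbit blood, 5% CO2. Endpoint: no visible growth.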

[3] = tested on: Enterococcus ATCC 700802; test: MIC against the infecting strain (Table 2); format: cell-based, Enterococcus faecalis; details: ATCC700802
In short: as §1

[4] = tested on: E. coli 02-1-65; test: MIC against the infecting strain (Table 2); format: cell-based; details: E. coli 02-1-65
In short: as §1

[5] = tested on: Staphylococcus aureus ATCC 29213; test: MIC against the infecting strain (Table 2); format: cell-based; details: ATCC29213
In short: as §1

[6] = tested on: Staphylococcus aureus MRSA BAA-42; test: MIC against the infecting strain (Table 2); format: cell-based; details: Staphylococcus aureus MRSA BAA-42
In short: as §1

[7] = tested on: E. coli 02-1-65; test: Protection test in vivo (intravenous injection) of infected mice; design: species or system Kungming mice; details: mice, infected with 3.8 × 10^5 cfu/ml i.p., drug once intravenous
In short: (§2)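 Mice got a lethal intraperitoneal bacterial challenge, then one intravenous dose of drug in sterile water at 10, 5 or 2.5 mg/kg. Survival was checked every 24 h for 7–14 days, with death counted as the positive result.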

[8] = tested on: Enterococcus ATCC 700802; test: as above; design: species or system Kungming mice; details: mice, infected with 7.0 × 10^6 cfu/ml i.p., drug once intravenous
In short: as §2

[9] = tested on: Staphylococcus aureus ATCC 29213; test: as above; design: species or system Kungming mice; details: mice, infected with 4.6 × 10^5 cfu/ml i.p., drug once intravenous
In short: as §2

[10] = tested on: Staphylococcus aureus MRSA BAA-42; test: as above; design: species or system Kungming mice
In short: as §2

[11] = tested on: methicillin-resistant Staphylococcus aureus ATCC BAA-42; test: Bacteria growth curve (A595 nm), comparison of the novel antibiotics; format: cell-based; details: drug 5 μg/ml, 37° C., A595 nm per hour
In short: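 MRSA ATCC BAA-42 (10^6 CFU/ml inoculum level) grown in peptone/NaCl/yeast extract/glucose/K2HPO4 broth at 37 °C, 200 rpm, with each polypeptide at 5 μg/ml; buffer (0.3 M NaCl + 50 mM boric acid) and penicillin G 5 μg/ml as controls. Turbidity (A595 nm) sampled hourly for growth curves.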

[12] = Immunization of mice, valence of mouse sera by indirect ELISA; format: in vivo; details: from valence of mouse sera
Procedure: Allosteric peptide of Colicin Ia, i.e. Ia′, PMC-SA1 obtained in embodiment 1, wild-type colicin Ia and the anti-Staphylococcus aureus peptide (ZL01128836.1) which invented by the present inventor were taken respectively to immunize mice. After admixturing with the adjuvant, the above proteins were interaperitonea injected respectively to the mice by 50 μg per mouse for one time of foundational quantity and 50 μg per mouse for one time of additional quantity totally 5 times by two weeks interval. Indirect ELISA detection method was applied to detect the valence of mouse sera (Xiao Yi, et. al., Preparation and preliminary characterization of monoclonal antibodies against Pheromonicin-and-Staphylococcus aureus, Shanxi Medical Journal, 35(1): 6-7, 32 (2006)). The valence of mouse sera which immunized by wild type colicin Ia as well as anti-Staphylococcus aureus polypeptide (ZL01128836.1) was 10^−4 to 10^−5, while the valence of mouse sera which immunized by allosteric peptide of colicin Ia and PMC-SA1 was 10^−2 to 10^−3.

B1: PMC-SA1: Staphylococcus aureus pheromone AgrD I linked to C-terminus of allosteric colicin Ia′; SEQ ID NO. 13; plasmid pBHC-SA1 (protein)
chain: SDPVRITNPAAESLGYDSDGREIMGVDIYLNPPRVDVFKGTPPAWSSFGNKTIWGGNEWVDDSPTRSDIEKRDKEITAYKNTLSAQQKENENKRTEAGKRLSAAIAAREKDENTLKTLRAGNADAADITRQEFRLLQAELREYGFRTEIAGYDALRLHTESRMLFADADSLRISPREARSLIEQAEKRQKDAQNADKKAADMLAEYERRKGILDTRLSELEKNGGAALAVLDAQQARLLGQQTRNDRAISEARNKLSSVTESLNTARNALTRAEQQLTQQKNTPDGKTIVSPEKFPGRSSTNHSIVVSGDPRFAGTIKITTSAVIDNRANLNYLLSHSGLDYKRNILNDRNPVVTEDVEGDKKIYNAEVAEWDKLRQRLLDARNKITSAESAVNSARNNLSARTNEQKHANDALNALLKEKENIRNQLSGINQKIAEEKRKQDELKATKDAINFTTEFLKSVSEKYGAKAEQLAREMAGQAKGKKIRNVEEALKTYEKYRADINKKINAKDRAAIAAALESVKLSDISSNLNRFSRGLGYAGKFTSLADWITEFGKAVRTENWRPLFVKTETIIAGNAATALVALVFSILTGSALGIIGYGLLMAVTGALIDESLVEKANKFWGIYSTCDFIM
modifications: The peptide of PMC-SA1
notes: Staphylococcus aureus pheromone AgrD I linked to C-terminus of allosteric colicin Ia′; 13; plasmid pBHC-SA1
antibiosis effect relative to oxacillin (by molecular weight and concentration) ([1]; 10 μg/ml PMC-SA1 vs 500 μg/ml oxacillin): about eight thousand | bactericidal effect, bacterial appearance under transmission electron microscope ([1]; PMC-SA1 10 μg/ml, 0.5 hours): bacterium were ruptured, the contents were leaked out; also recorded: the bacterium ruptured and leaked out its contents; also recorded: could kill methicillin-resistant Staphylococcus aureus effectively | MIC50 [2]: >64 µg/mL | MIC90 [2]: >64 µg/mL | MIC [3]: 16 µg/mL | MIC [4]: 1 µg/mL | MIC [5]: 0.5 µg/mL | MIC [6]: 0.5 µg/mL | ED50 [7]: 3.78 mg/kg | ED50 [8]: 18.2 mg/kg | ED50 [9]: 10.35 mg/kg | ED50 ([10]; mice, infected with 6.5 × 10^5 cfu/ml i.p., drug once intravenous): 4.12 mg/kg | treatment effects on methicillin-resistant Staphylococcus aureus infection in vivo compared with vancomycin ([10]; survival rate of mice, three dosage groups): far better treatment effects | bacteriostasis effect on growth of methicillin-resistant Staphylococcus aureus (bacteria growth curve) [11]: the best | possibility of causing host allergic reaction relative to anti-Staphylococcus aureus polypeptide [12]: lower one to two order of magnitude
